From patent publication US20240025997A1 (NGM BIOPHARMACEUTICALS, published 2024)
Where a chain is given by its changes, count along the chain named. Values belong to the binder of their own block, whether it stands above or below them.

Columns and labels:
soluble human ILT2-ECD [1] = target: T1, soluble human ILT2-ECD (human, UniProt Q8NHL6 24-461); experiment: SPR (Biacore) as described in Example 3
T1 construct: also called LILRB1 extracellular domain
Experimental: (§1) The binding affinities of anti-ILT2 and anti-ILT4 antibodies were measured using a Biacore system (GE Healthcare LifeSciences). Equilibrium dissociation constant (KD) measurements were carried out with purified antibodies to evaluate their binding to human ILT2, human ILT4, and rhesus ILT2. Briefly, purified anti-ILT2 antibody 27F9, anti-ILT4 antibodies 47C8 and 48A5, and anti-ILT2/ILT4 antibodies 47H6, 51A1, 64A12, 73C4, and 73D1 were captured on a Sensor Chip Protein A (GE HealthCare). The surface of the Biacore Sensor Chip Protein A consists of a carboxymethylated dextran matrix with a recombinant Protein A variant covalently attached. Soluble human ILT2-ECD, human ILT4-ECD, or rhesus ILT2-ECD were injected at a flow rate of 30 μL/min at 25° C. The ILT2 or ILT4 proteins were used at concentrations ranging from 1.6-200 nM in PBS-P buffer with 2 fold dilutions. Kinetic data were collected over time and fit using the simultaneous global fit equation to yield affinity constants (KD values) for each antibody.
(§2) The binding affinities of the humanized antibodies to human ILT2 and human ILT4 were measured using a Biacore system as described herein. The binding affinities of antibodies Hz47H6.v2, Hz64A12, and Hz73D1.v1 are shown in Table 11 as compared with the parental antibodies.

soluble human ILT4-ECD [2] = target: T2, soluble human ILT4-ECD (human, UniProt Q8N423 22-460); experiment: SPR (Biacore) as described in Example 3
T2 construct: also called LILRB2 extracellular domain
T2 sequence (Q8N423 other isoform, or with tags, fused parts or gaps): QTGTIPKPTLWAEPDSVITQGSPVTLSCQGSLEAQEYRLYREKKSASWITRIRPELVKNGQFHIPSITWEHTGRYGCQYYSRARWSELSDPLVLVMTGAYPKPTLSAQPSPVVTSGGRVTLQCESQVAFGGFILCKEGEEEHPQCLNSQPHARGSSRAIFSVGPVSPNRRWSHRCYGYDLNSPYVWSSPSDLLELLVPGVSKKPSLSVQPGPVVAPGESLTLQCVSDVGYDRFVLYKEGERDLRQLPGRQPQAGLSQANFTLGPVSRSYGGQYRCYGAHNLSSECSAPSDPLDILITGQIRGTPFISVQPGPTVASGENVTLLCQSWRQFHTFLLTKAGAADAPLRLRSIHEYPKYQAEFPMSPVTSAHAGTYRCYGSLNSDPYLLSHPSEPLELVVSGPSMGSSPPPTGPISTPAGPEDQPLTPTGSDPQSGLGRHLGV
Experimental: as §1, §2

soluble human ILT2-ECD [3] = target: T1, soluble human ILT2-ECD; experiment: SPR (Biacore), antibody captured on Protein A chip, soluble ILT-ECD injected (1.6-200 nM), 25 C
Experimental: as §1

soluble human ILT4-ECD [4] = target: T2, soluble human ILT4-ECD; experiment: as above
Experimental: as §1

soluble human ILT2-ECD [5] = target: T1, soluble human ILT2-ECD; experiment: SPR (Biacore), antibody captured on Protein A chip, soluble ILT-ECD injected, 25 C, low resolution parameters
Experimental: as §1

soluble human ILT4-ECD [6] = target: T2, soluble human ILT4-ECD; experiment: as above
Experimental: as §1

soluble human ILT2-ECD [7] = target: T1, soluble human ILT2-ECD; experiment: SPR (Biacore) as described in Example 3, low resolution parameters
Experimental: as §1, §2

soluble human ILT4-ECD [8] = target: T2, soluble human ILT4-ECD; experiment: as above
Experimental: as §1, §2

[9] = target: T3, cynomolgus monkey ILT2 on cells (cynomolgus monkey); experiment: flow cytometry, fluorescently labelled antibody on CD14+ monocytes of cyno PBMC, donor Cyno 1, geometric MFI
T3 construct: also called cyno ILT2; ILT2 on cyno CD14+ monocytes
T3 sequence (chain, as listed by the source): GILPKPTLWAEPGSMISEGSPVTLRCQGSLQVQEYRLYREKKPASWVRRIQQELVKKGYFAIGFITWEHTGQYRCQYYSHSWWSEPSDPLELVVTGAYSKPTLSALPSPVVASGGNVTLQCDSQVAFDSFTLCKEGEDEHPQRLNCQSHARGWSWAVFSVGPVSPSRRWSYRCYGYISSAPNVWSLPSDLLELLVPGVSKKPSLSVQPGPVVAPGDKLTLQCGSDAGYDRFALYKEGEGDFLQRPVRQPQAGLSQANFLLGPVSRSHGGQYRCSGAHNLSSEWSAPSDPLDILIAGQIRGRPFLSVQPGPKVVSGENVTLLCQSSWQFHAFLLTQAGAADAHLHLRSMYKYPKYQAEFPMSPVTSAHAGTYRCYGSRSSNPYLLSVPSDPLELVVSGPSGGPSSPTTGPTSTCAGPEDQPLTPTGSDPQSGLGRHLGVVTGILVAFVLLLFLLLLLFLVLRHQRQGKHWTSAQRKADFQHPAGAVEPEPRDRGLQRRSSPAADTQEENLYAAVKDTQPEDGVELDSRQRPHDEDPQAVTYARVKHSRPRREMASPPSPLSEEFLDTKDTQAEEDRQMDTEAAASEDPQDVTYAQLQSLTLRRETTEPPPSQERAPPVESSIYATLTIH
Experimental: (§3) The binding of anti-ILT2/ILT4 antibodies to monocytes was evaluated. The binding of exemplary anti-ILT2/ILT4 antibody 73D1 and the humanized version Hz73D1.v1 to the CD14+ monocyte population of human and cyno PBMC were determined by flow cytometry analysis. Briefly, human or cyno PBMCs (from 2 donors each) were thawed, washed in media (RPMI, 10% FBS, L-glutamine, pen/strep), and resuspended in fresh media. PBMCs were stained with a cocktail of labeled antibodies to differentiate between the different cell types. 1×10⁶ cells/well were stained with fluorescently-labelled 73D1 or Hz73D1.v1 antibody and incubated on ice. The cells were washed with ice-cold reagents and immediately analyzed by flow cytometry. The geometric mean fluorescence intensity for CD14+ monocytes was calculated for each sample. […] For example, the 50% effective concentration (EC₅₀) of Hz73D1.v1 was 8.8 nM with human monocytes and 1.8 nM with cyno monocytes.

[10] = target: T3, cynomolgus monkey ILT2 on cells; experiment: flow cytometry, fluorescently labelled antibody on CD14+ monocytes of cyno PBMC, donor Cyno 2, geometric MFI
Experimental: as §3

human ILT4 on cells = target: T4, human ILT4 on cells (human, UniProt Q8N423 22-597); experiment: flow cytometry, fluorescently labelled antibody on immune cell subsets of PBMC / red-cell-depleted whole blood
T4 construct: also called LILRB2; human ILT4 expressed on 293T cells
T4 sequence (Q8N423 other isoform, or with tags, fused parts or gaps): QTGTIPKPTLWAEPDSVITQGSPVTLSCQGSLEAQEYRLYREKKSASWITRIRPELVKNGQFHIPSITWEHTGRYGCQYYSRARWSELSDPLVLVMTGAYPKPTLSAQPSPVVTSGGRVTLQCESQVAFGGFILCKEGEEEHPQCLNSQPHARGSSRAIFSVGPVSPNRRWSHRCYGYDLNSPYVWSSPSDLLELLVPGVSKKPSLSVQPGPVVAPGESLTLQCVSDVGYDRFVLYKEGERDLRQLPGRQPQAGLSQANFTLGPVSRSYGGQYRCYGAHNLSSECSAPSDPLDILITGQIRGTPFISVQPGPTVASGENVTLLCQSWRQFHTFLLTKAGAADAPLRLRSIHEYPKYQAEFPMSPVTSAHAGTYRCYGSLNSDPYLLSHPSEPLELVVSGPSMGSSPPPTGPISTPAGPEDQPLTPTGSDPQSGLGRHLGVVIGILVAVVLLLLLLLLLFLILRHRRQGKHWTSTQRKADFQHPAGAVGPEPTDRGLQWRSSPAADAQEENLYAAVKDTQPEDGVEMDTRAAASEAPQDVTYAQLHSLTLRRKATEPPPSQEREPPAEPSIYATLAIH
Experimental: Flow cytometry analysis of blood immune cells was performed on human and cyno PBMC and whole blood. PBMC were prepared from a leukopak (Allcells Inc.) by centrifugation through ficoll, washing with PBS and freezing in cryopreservation buffer in liquid nitrogen until use. Whole blood (Allcells Inc.) was obtained fresh and red blood cells (RBC) depleted using ammonium chloride RBC lysing solution (Biolegend). PBMC or whole blood samples were stained with a fluorescently labeled antibody panel to distinguish various immune subsets (monocytes, B cells, NK cells, CD4+ and CD8+ T cells, neutrophils and eosinophils). Samples were further stained with fluorescently labeled isotype, 27F9 (ILT2 specific), 48A5 (ILT4 specific), 73D1, and Hz73D1.v1. The number of ILT2 and ILT4 molecules per cell of each immune subset was estimated by incubation with Quantum Simply Cellular microspheres followed by flow cytometry analysis.

T1 sequence (Q8NHL6 24-461): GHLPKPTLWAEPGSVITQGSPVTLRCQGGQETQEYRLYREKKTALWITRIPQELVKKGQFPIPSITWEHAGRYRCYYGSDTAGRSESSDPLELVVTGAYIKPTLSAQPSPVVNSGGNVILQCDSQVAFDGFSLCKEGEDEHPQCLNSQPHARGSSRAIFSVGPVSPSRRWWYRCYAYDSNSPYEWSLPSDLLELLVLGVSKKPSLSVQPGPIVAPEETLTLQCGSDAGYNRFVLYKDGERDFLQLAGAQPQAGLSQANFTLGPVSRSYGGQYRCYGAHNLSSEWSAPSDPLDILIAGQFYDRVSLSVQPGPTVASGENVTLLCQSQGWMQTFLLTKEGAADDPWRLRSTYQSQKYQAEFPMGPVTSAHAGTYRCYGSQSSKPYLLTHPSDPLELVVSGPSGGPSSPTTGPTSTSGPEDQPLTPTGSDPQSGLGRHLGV

B1: anti-ILT2/ILT4 antibody 47H6 (antibody, V domains shown)
VH: EVQLQQSGPELVKPGASVKISCKASGYTFTDYYMNWVKQSHGKSLEWIGDFNPNNGGTTYNQKFEGKATLTVDKSSNTAYMDLRSLTSEDSAVYYCARGRFYYGSLYSFDYWGQGTTLTVSS
VL: DIQMTQSPASLSASVGETVTITCRASGNIHNYLAWYQQKQGKSPHLLVYNAKTLADGVPSRFSGSGSGTQYSLKINNLQPEDFGSYYCQHFWTSITFGAGTKLDLK
notes: Mouse hybridoma antibody
Kd (soluble human ILT2-ECD [1]): 0.2 nM | koff (soluble human ILT2-ECD [1]): 2.1e-05 s⁻¹ | kon (soluble human ILT2-ECD [1]): 100000 M⁻¹ s⁻¹ | Kd (soluble human ILT4-ECD [2]): 0.2 nM | koff (soluble human ILT4-ECD [2]): 2.1e-05 s⁻¹ | kon (soluble human ILT4-ECD [2]): 100000 M⁻¹ s⁻¹ | Kd (soluble human ILT2-ECD [3]): 2.1 nM | koff (soluble human ILT2-ECD [3]): 8.6e-05 s⁻¹ | kon (soluble human ILT2-ECD [3]): 42000 M⁻¹ s⁻¹ | Kd (soluble human ILT4-ECD [4]): 0.76 nM | koff (soluble human ILT4-ECD [4]): 2.8e-05 s⁻¹ | kon (soluble human ILT4-ECD [4]): 37000 M⁻¹ s⁻¹

B2: anti-ILT2/ILT4 antibody 73C4 (antibody, V domains shown)
VH: AVQLQQSGPELVKPGASVKISCKASGYTFTDYYMNWVKQSHGKSLEWIGNVNPNNGGTSYNQKFKGKATLTVDKSSSTAYMELRSLTSEDSAVYYCARREIYFYGTIYYYAMDYWGQGTSVTVSS
VL: DIVLTQSPASLAVSLGQRATISCRASESVDYYGNSFMYWYQQKPGRPPNLLIYFASNLESGVPARFSGSGSRTDFTLTIDPVEADDAATYYCQQNNEDPWTFGGGTKLEIK
notes: Mouse hybridoma antibody
Kd (soluble human ILT2-ECD [5]): < 0.1 nM | koff (soluble human ILT2-ECD [5]): ~1e-05 s⁻¹ | kon (soluble human ILT2-ECD [5]): 31000 M⁻¹ s⁻¹ | Kd (soluble human ILT4-ECD [6]): < 0.1 nM | koff (soluble human ILT4-ECD [6]): ~1e-05 s⁻¹ | kon (soluble human ILT4-ECD [6]): 97000 M⁻¹ s⁻¹

B3: anti-ILT2/ILT4 antibody 51A1 (antibody, V domains shown)
VH: EVQLVESGGGLVQPKGSLKLSCAASGFTFNTYAMHWVRQAPGKGLEWVARIRSKSSNYATYYADSVKDRFTISRDDSQSMLYLQMNNLKTEDTAMYYCVRDGIYYYGTMYYYAMDYWGQGTSVTVSS
VL: B2 VL with D1N, R46Q, N49K, D85A, T89S
notes: Mouse hybridoma antibody
Kd (soluble human ILT2-ECD [3]): 5.8 nM | koff (soluble human ILT2-ECD [3]): 0.00022 s⁻¹ | kon (soluble human ILT2-ECD [3]): 39000 M⁻¹ s⁻¹ | Kd (soluble human ILT4-ECD [4]): 0.2 nM | koff (soluble human ILT4-ECD [4]): 1.4e-05 s⁻¹ | kon (soluble human ILT4-ECD [4]): 68000 M⁻¹ s⁻¹

Results, then the binder that gave them:

Kd (soluble human ILT2-ECD [7]): < 0.1 nM | koff (soluble human ILT2-ECD [7]): ~1e-05 s⁻¹ | kon (soluble human ILT2-ECD [7]): 20000 M⁻¹ s⁻¹ | Kd (soluble human ILT4-ECD [8]): < 0.1 nM | koff (soluble human ILT4-ECD [8]): ~1e-05 s⁻¹ | kon (soluble human ILT4-ECD [8]): 82000 M⁻¹ s⁻¹ | Kd (soluble human ILT2-ECD [5]): < 0.1 nM | koff (soluble human ILT2-ECD [5]): ~1e-05 s⁻¹ | kon (soluble human ILT2-ECD [5]): 20000 M⁻¹ s⁻¹ | Kd (soluble human ILT4-ECD [6]): < 0.1 nM | koff (soluble human ILT4-ECD [6]): ~1e-05 s⁻¹ | kon (soluble human ILT4-ECD [6]): 82000 M⁻¹ s⁻¹
B4: anti-ILT2/ILT4 antibody 64A12 (antibody, V domains shown)
VH: B3 VH with G107D
VL: B2 VL with D1N, M37I, R46Q, N49K, D85A, T89S
notes: Mouse hybridoma antibody

Kd (soluble human ILT2-ECD [1]): 1.8 nM | koff (soluble human ILT2-ECD [1]): 0.00024 s⁻¹ | kon (soluble human ILT2-ECD [1]): 150000 M⁻¹ s⁻¹ | Kd (soluble human ILT4-ECD [2]): 0.74 nM | koff (soluble human ILT4-ECD [2]): 0.0003 s⁻¹ | kon (soluble human ILT4-ECD [2]): 400000 M⁻¹ s⁻¹ | Kd (soluble human ILT2-ECD [3]): 1.2 nM | koff (soluble human ILT2-ECD [3]): 6e-05 s⁻¹ | kon (soluble human ILT2-ECD [3]): 50000 M⁻¹ s⁻¹ | Kd (soluble human ILT4-ECD [4]): 0.18 nM | koff (soluble human ILT4-ECD [4]): 5.4e-05 s⁻¹ | kon (soluble human ILT4-ECD [4]): 300000 M⁻¹ s⁻¹ | EC50 (read off the curve) [9]: ~0.7 nM | EC50 (read off the curve) [10]: ~0.9 nM | binding result (human ILT4 on cells): binds
B5: anti-ILT2/ILT4 antibody 73D1 (antibody, V domains shown)
VH: B2 VH with M34I, E46Q, N55D, S59T
VL: B2 VL
notes: Mouse hybridoma antibody; Shares its light chain variable region with 73C4

Kd (soluble human ILT2-ECD [7]): 1.6 nM | koff (soluble human ILT2-ECD [7]): 0.00014 s⁻¹ | kon (soluble human ILT2-ECD [7]): 93000 M⁻¹ s⁻¹ | Kd (soluble human ILT4-ECD [8]): < 0.1 nM | koff (soluble human ILT4-ECD [8]): ~1e-05 s⁻¹ | kon (soluble human ILT4-ECD [8]): 300000 M⁻¹ s⁻¹
B6: humanized anti-ILT2/ILT4 antibody Hz64A12 (antibody, human IgG1, kappa, N297G, V domains shown)
VH: EVQLVESGGGLVQPGGSLRLSCAASGFTFNTYAMHWVRQAPGKGLEWVARIRSKSSNYATYYADSVKDRFTISRDDAKNSLYLQMNSLRAEDTAVYYCARDGIYYYDTMYYYAMDYWGQGTLVTVSS
VL: NIVLTQSPDSLAVSLGERATINCRASESVDYYGNSFIYWYQQKPGQPPKLLIYFASNLESGVPDRFSGSGSGTDFTLTISSLQAEDVAVYYCQQNNEDPWTFGGGTKVEIKR
notes: Human IgG1 constant region with G at position 297, human kappa

Kd (soluble human ILT2-ECD [1]): 4 nM | koff (soluble human ILT2-ECD [1]): 0.0009 s⁻¹ | kon (soluble human ILT2-ECD [1]): 230000 M⁻¹ s⁻¹ | Kd (soluble human ILT4-ECD [2]): 2 nM | koff (soluble human ILT4-ECD [2]): 0.00018 s⁻¹ | kon (soluble human ILT4-ECD [2]): 87000 M⁻¹ s⁻¹
B7: humanized anti-ILT2/ILT4 antibody Hz47H6.v2 (antibody, human IgG1, kappa, N297G, V domains shown)
VH: QVQLVQSGAEVKKPGASVKVSCKASGYTFTDYYMNWVRQAPGQRLEWIGDFNPNNAGTTYNQKFEGRVTITVDKSASTAYMELSSLRSEDTAVYYCARGRFYYGSLYSFDYWGQGTLVTVSS
VL: DIQMTQSPSSLSASVGDRVTITCRASGNIHNYLAWYQQKPGKAPKLLIYNAKTLADGVPSRFSGSGSGTDFTLTISSLQPEDFATYYCQHFWTSITFGPGTKVDIKR
